Assay results as given in patent US20240018502A1.
Positions count from the first letter of the chain named. Names may count otherwise.

B1: MTSP-1 Q38H/I41S/D60bS/F93L/D96Y/ins97aV/F97D/T98P/F99L/C122S/I136F/Q192G/D217V (enzyme)
chain: VVGGTDADEGEWPWQVSLHALGHGHSCGASLISPNWLVSAAHCYIDSRGFRYSDPTQWTAFLGLHDQSQRSAPGVQERRLKRIISHPLFNYDVPLDYDIALLELEKPAEYSSMVRPISLPDASHVFPAGKAFWVTGWGHTQYGGTGALILQKGEIRVINQTTCENLLPQQITPRMMCVGFLSGGVDSCGGDSGGPLSSVEADGRIFQAGVVSWGVGCAQRNKPGVYTRLPLFRDWIKENTGV
B2: MTSP-1 Q38K/I41T/D60bY/ins97aV/F97D/T98P/F99L/C122S/I136T/Q192G/F208V/D217R (enzyme)
chain: B1 chain with H23K, S26T, S47Y, L88F, Y91D, F132T, F206V, V215R
B3: MTSP-1 protease domain Q38H/I41S/D60bQ/F60eQ/F97D/ins97aV/T98P/F99L/C122S/H143Q/G151Q/Q175L/Q192G (enzyme)
chain: B1 chain with S47Q, F50Q, L88F, Y91D, F132I, H139Q, G146Q, Q170L, V215D
B4: MTSP-1 Q38H/I41S/D60bS/F60eQ/Y60gF/ins97aV/F97D/T98P/F99L/C122S/H143R/G151N/Q175L/Q192T (enzyme)
chain: B1 chain with F50Q, Y52F, L88F, Y91D, F132I, H139R, G146N, Q170L, G189T, V215D
B5: MTSP-1 Q38H/I41S/D60bT/F60eS/Y60gW/ins97aV/F97D/T98P/F99L/C122S/G151N/Q175L/Q192D (enzyme)
chain: B1 chain with S47T, F50S, Y52W, L88F, Y91D, F132I, G146N, Q170L, G189D, V215D
B6: MTSP-1 Q38K/I41S/D60bV/ins97aV/F97D/T98P/F99L/M117T/C122S/Q145E/Q175L/Q192G (enzyme)
chain: B1 chain with H23K, S47V, L88F, Y91D, M113T, F132I, Q141E, Q170L, V215D
B7: MTSP-1 Q38H/I41S/D60bT/F93L/ins97aV/F97D/T98P/F99L/S115N/C122S/Q192V/F208L/D217Q (enzyme)
chain: B1 chain with S47T, Y91D, S111N, F132I, G189V, F206L, V215Q
B8: MTSP-1 I41S/D60bS/D96V/ins97aV/F97D/T98P/F99L/C122S/Q192G/F208L/D217N (enzyme)
chain: B1 chain with H23Q, L88F, Y91V, F132I, F206L, V215N
B9: MTSP-1 Q38H/I41S/L52M/D60bH/D96V/ins97aV/F97D/T98P/F99L/C122S/T150A/Q192G/Q209L/D217T (enzyme)
chain: B1 chain with L37M, S47H, L88F, Y91V, F132I, T145A, Q207L, V215T
B10: MTSP-1 Q38H/I41S/D60bS/ins97aV/F97D/T98P/F99L/C122S/I136V/Q192G/D217V (enzyme)
chain: B1 chain with L88F, Y91D, F132V
B11: MTSP-1 Q38H/I41S/D60bT/S90T/F97D/ins97aV/T98P/F99L/C122S/S127N/I136F/Q192G/D217Q (enzyme)
chain: B1 chain with S47T, S85T, L88F, Y91D, S123N, V215Q
B12: MTSP-1 Q38H/I41T/D60bH/ins97aV/F97D/T98P/F99L/C122S/I136F/L153P/Q192G/D217Y (enzyme)
chain: B1 chain with S26T, S47H, L88F, Y91D, L148P, V215Y
B13: MTSP-1 Q38H/I41S/D60bF/F60eT/ins97aV/F97D/T98P/F99L/C122S/H143Q/G151N/Q175L/Q192G (enzyme)
chain: B1 chain with S47F, F50T, L88F, Y91D, F132I, H139Q, G146N, Q170L, V215D
B14: MTSP-1 I41S/D60bH/ins97aV/F97D/T98P/F99L/C122S/I136V/Q192G/D217N (enzyme)
chain: B1 chain with H23Q, S47H, L88F, Y91D, F132V, V215N
B15: MTSP-1 Q38H/I41S/D60bY/D96Y/ins97aV/F97D/T98P/F99L/L106M/C122S/I136M/Q192G/Q209L/D217T (enzyme)
chain: B1 chain with S47Y, L88F, L102M, F132M, Q207L, V215T
B16: MTSP-1 Q38H/I41S/D60bG/ins97aV/F97D/T98P/F99L/M117T/C122S/N164D/Q192G/D217E (enzyme)
chain: B1 chain with S47G, L88F, Y91D, M113T, F132I, N159D, V215E
B17: MTSP-1 protease domain Q38H/I41S/D60bT/F60eT/ins97aV/F97D/T98P/F99L/C122S/H143Q/G151Q/Q175L/Q192G (enzyme)
chain: B1 chain with S47T, F50T, L88F, Y91D, F132I, H139Q, G146Q, Q170L, V215D
B18: MTSP-1 protease domain Q38H/I41S/D60bS/F60eQ/ins97aV/F97D/T98P/F99L/C122S/H143A/G151N/Q175L/Q192G (enzyme)
chain: B1 chain with F50Q, L88F, Y91D, F132I, H139A, G146N, Q170L, V215D
B19: MTSP-1 Q38H/I41S/D60bT/F93S/ins97aV/F97D/T98P/F99L/C122S/I136L/Q192G/D217A (enzyme)
chain: B1 chain with S47T, L88S, Y91D, F132L, V215A
B20: MTSP-1 Q38H/I41S/D60bA/Y60gG/ins97aV/F97D/T98P/F99L/C122S/H143T/G151N/Q175L/Q192A (enzyme)
chain: B1 chain with S47A, Y52G, L88F, Y91D, F132I, H139T, G146N, Q170L, G189A, V215D
B21: MTSP-1 Q38H/I41S/D60bT/F60eT/Y60gW/ins97aV/F97D/T98P/F99L/C122S/G151H/Q175L/Q192V (enzyme)
chain: B1 chain with S47T, F50T, Y52W, L88F, Y91D, F132I, G146H, Q170L, G189V, V215D
B22: MTSP-1 L33M/Q38H/I41A/D60bA/ins97aV/F97D/T98P/F99L/C122S/Q192G/D217N (enzyme)
chain: B1 chain with L18M, S26A, S47A, L88F, Y91D, F132I, V215N
B23: MTSP-1 Q38H/I41S/D60bT/F60eS/Y60gW/F97D/F99L/C122S/G151H/Q175L/Q192D (enzyme)
chain: VVGGTDADEGEWPWQVSLHALGHGHSCGASLISPNWLVSAAHCYIDTRGSRWSDPTQWTAFLGLHDQSQRSAPGVQERRLKRIISHPFFNDDTLDYDIALLELEKPAEYSSMVRPISLPDASHVFPAGKAIWVTGWGHTQYGGTHALILQKGEIRVINQTTCENLLPQLITPRMMCVGFLSGGVDSCDGDSGGPLSSVEADGRIFQAGVVSWGDGCAQRNKPGVYTRLPLFRDWIKENTGV

Target: plasma purified human complement protein C3 (human) (UniProt P01024)
Sequence (P01024 23-667, chain 1 of 2): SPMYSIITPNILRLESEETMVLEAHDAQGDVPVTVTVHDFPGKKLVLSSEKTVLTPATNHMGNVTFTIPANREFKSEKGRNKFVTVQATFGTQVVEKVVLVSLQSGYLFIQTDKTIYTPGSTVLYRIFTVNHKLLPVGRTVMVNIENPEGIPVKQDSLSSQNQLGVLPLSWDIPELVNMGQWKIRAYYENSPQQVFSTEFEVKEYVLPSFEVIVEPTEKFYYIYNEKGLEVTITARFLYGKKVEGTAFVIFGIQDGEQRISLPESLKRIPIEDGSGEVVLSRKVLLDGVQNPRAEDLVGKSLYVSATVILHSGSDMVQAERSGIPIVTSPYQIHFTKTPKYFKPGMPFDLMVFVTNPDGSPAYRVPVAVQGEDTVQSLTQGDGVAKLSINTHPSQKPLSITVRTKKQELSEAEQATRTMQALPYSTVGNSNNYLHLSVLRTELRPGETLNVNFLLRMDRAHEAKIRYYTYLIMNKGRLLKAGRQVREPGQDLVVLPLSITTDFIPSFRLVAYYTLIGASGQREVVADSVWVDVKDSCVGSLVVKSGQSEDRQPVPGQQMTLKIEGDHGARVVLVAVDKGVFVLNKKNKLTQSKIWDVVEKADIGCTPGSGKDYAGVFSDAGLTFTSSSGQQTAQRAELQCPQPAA
Sequence (P01024 672-1663, chain 2 of 2): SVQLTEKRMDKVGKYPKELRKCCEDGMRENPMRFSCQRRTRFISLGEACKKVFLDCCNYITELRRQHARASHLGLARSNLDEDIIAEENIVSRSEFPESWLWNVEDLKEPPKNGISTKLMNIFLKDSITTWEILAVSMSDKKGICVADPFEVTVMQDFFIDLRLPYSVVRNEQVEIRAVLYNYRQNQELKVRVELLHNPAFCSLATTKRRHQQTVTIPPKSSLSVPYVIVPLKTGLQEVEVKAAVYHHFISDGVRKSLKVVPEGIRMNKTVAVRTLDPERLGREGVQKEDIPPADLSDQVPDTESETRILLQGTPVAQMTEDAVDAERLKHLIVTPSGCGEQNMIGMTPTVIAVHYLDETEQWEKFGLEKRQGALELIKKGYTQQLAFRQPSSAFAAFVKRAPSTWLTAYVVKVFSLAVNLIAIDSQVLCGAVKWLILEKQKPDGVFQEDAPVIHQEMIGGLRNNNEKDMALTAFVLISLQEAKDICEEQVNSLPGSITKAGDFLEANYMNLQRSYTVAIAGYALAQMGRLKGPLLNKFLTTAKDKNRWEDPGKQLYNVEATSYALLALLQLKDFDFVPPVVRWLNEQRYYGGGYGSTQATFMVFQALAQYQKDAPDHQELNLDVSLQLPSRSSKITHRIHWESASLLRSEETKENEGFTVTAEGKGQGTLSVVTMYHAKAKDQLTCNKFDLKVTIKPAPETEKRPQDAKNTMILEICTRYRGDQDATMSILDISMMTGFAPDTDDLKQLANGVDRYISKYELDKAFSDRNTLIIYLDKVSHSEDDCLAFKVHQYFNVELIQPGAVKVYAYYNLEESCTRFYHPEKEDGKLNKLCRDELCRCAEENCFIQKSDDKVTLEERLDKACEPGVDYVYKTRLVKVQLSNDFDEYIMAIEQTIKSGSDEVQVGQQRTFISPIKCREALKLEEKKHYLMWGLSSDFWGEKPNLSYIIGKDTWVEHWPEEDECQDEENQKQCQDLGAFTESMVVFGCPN
Assay: cell-based or functional assay

Row | Binder | EC50 of hC3 cleavage [nM] | EC50 hC3 cleavage [nM]
1 | B1 | 9.56 | 
2 | B2 | 19.5 | 
3 | B3 |  | 8.5
4 | B4 | 12.9 | 
5 | B5 | 15.4 | 
6 | B6 | 11.8 | 
7 | B7 | 45.8 | 
8 | B8 | 52.4 | 
9 | B9 | 16.9 | 
10 | B10 | 7.05 | 
11 | B11 | 21.2 | 
12 | B12 | 25.5 | 
13 | B13 | 3.07 | 
14 | B14 | 20.6 | 
15 | B15 | 1.97 | 
16 | B16 | 10.3 | 
17 | B17 |  | 6.69
18 | B18 |  | 26.3
19 | B19 | 37 | 
20 | B20 | 4.22 | 
21 | B21 | 5.52 | 
22 | B22 | 50 | 
23 | B23 | 5.53 | 
